What was measured:
[1] = molecular target: HA-DPP6K (mouse dipeptidyl peptidase-like protein 6, N-terminal variant K, HA-tagged) (mouse); assay: co-IP; DPP6 and TASK-3 co-expressed with one of them HA-tagged; membrane fraction solubilised in TNE buffer (50 mM TRIS, 150 mM NaCl, 1 mM EDTA, pH 7.4, 1% Triton X-100), precleared with mouse IgG agarose, incubated 16 h at 4°C with anti-HA agarose (clone HA-7); Western blot with anti-DPP6 or anti-KCNK9; Co-IP ratio = fraction precipitated indirectly when untagged divided by fraction precipitated directly when tagged
[2] = molecular target: HA-mKCNK9 (mouse TASK-3, HA-tagged) (mouse) (UniProt Q3LS21); assay: as above
[3] = molecular target: Mouse TASK-3 (mKCNK9), untagged (mouse) (UniProt Q3LS21)

Substance | Co-IP ratio (percent of the protein that could be directly precipitated) [1] | Co-IP ratio (percent of the protein that could be directly precipitated) [2] | resting membrane conductance of CHO-K1 cells co-expressing DPP6 with TASK-3, against TASK-3 alone (voltage clamp) [3]
Mouse TASK-3 (mKCNK9), untagged (from UniProt Q3LS21 1-402) (natural protein) | 31.4% | – | –
DPP6K (mouse dipeptidyl peptidase-like protein 6, N-terminal variant K), untagged (natural protein) | – | 31.4% | 2.3 fold
